Where two headings read alike, the source gives them in different places.

The term Kd denotes the free concentration of one partner at which half of the binding sites on the other are occupied at equilibrium, for simple one-to-one binding. High values mean lower affinity, low ones higher affinity.

Experiment in all cases: biolayer interferometry
A general note: In BLI a coated tip is dipped into the sample, and binding shifts an interference pattern.

In assay [1] the target is calmodulin (UniProt P0DP23).
In assay [2] the target is calmodulin (UniProt P0DP23). This is another data set of the same source.
Assay [3] deals with calmodulin (UniProt P0DP23). The source holds these as a separate data set.

B1: eNOS (protein)
chain: GNLKSVGQEPGPPCGLGLGLGLGLCGKQGPASPAPEPSRAPAPATPHAPDHSPAPNSPTLTRPPEGPKFPRVKNWELGSITYDTLCAQSQQDGPCTPRCCLGSLVLPRKLQTRPSPGPPPAEQLLSQARDFINQYYSSIKRSGSQAHEERLQEVEAEVASTGTYHLRESELVFGAKQAWRNAPRCVGRIQWGKLQVFDARDCSSAQEMFTYICNHIKYATNRGNLRSAITVFPQRAPGRGDFRIWNSQLVRYAGYRQQDGSVRGDPANVEITELCIQHGWTPGNGRFDVLPLLLQAPDEAPELFVLPPELVLEVPLEHPTLEWFAALGLRWYALPAVSNMLLEIGGLEFSAAPFSGWYMSTEIGTRNLCDPHRYNILEDVAVCMDLDTRTTSSLWKDKAAVEINLAVLHSFQLAKVTIVDHHAATVSFMKHLDNEQKARGGCPADWAWIVPPISGSLTPVFHQEMVNYILSPAFRYQPDPWKGSATKGAGITRKKTFKEVANAVKISASLMGTLMAKRVKATILYASETGRAQSYAQQLGRLFRKAFDPRVLCMDEYDVVSLEHEALVLVVTSTFGNGDPPENGESFAAALMEMSGPYNSSPRPEQHKSYKIRFNSVSCSDPLVSSWRRKRKESSNTDSAGALGTLRFCVFGLGSRAYPHFCAFARAVDTRLEELGGERLLQLGQGDELCGQEEAFRGWAKAAFQASCETFCVGEEAKAAAQDIFSPKRSWKRQRYRLSTQAEGLQLLPGLIHVHRRKMFQATVLSVENLQSSKSTRATILVRLDTAGQEGLQYQPGDHIGICPPNRPGLVEALLSRVEDPPPPTESVAVEQLEKGSPGGPPPSWVRDPRLPPCTLRQALTFFLDITSPPSPRLLRLLSTLAEEPSEQQELETLSQDPRRYEEWKWFRCPTLLEVLEQFPSVALPAPLLLTQLPLLQPRYYSVSSAPNAHPGEVHLTVAVLAYRTQDGLGPLHYGVCSTWLSQLKTGDPVPCFIRGAPSFRLPPDPYVPCILVGPGTGIAPFRGFWQERLHDIESKGLQPAPMTLVFGCRCSQLDHLYRDEVQDAQERGVFGRVLTAFSREPDSPKTYVQDILRTELAAEVHRVLCLERGHMFVCGDVTMATSVLQTVQRILATEGDMELDEAGDVIGVLRDQQRYHEDIFGLTLRTQEVTSRIRTQSFSLQERHLRGAVPWAFDPPGPDTPGP
modifications: Ca2+
Take B1: the Kd is 500 pM in the assay with calmodulin [1], 645 pM with calmodulin [2] and 650 pM with calmodulin [3].
